These results are taken from patent publication US20240158477A1 (BIODURO JIANGSU, published 2024).

Holding throughout (test): cell-based or functional assay
The target of test [1] is SARS-CoV-2 S protein of variant B1.1.7.
The target in test [2] is SARS-CoV-2 S protein of variant B.1.351.
The target in test [3] is SARS-CoV-2 S protein of variant P.1.
The target in test [4] is SARS-CoV-2 S protein of variant B.1.525.

B1: Fc tagged nanobody VHH60 (Fc fusion)
chain: EVQLVESGGGLVQPGGSLRLSCAASGRTFRVNLMGWFRQAPGKGRELVASINGFDDITYYPDSVEGRFTISRDNAKRMVYLQMNSLRAEDTAVYYCAAYDSDYDGRLFNYWGQGTQVTVSSGSGGGGSGGGGS
In the case of B1, the “IC50, pseudoviral entry assay (CaCO2 cells)” value in test [1] stood at 31.8 nM; in test [2] it was 18.3 nM; in test [3], 16.3 nM; in test [4], 15 nM.
